Drawing on PMC4361775, this text covers Kd of the higher-affinity species (heterogeneous analyte, two species 1:1), stoichiometry N and Kd for 3 substances.

The target in assay [1] is type II human collagen (human). Briefly: SPR. In general terms: Surface plasmon resonance follows binding to a sensor surface in real time, without labels.
Assay [2] has as its target coch_vWFA2_F527C protein, monomeric form (recombinant vWFA2 domain of human cochlin carrying the p.F527C mutation) (human). Briefly: non-reducing SDS-PAGE.
The target of a further assay is type II collagen (UniProt P02458). Briefly: SPR. To be noted: cited from earlier work.
Sequence of type II collagen (P02458 182-1241): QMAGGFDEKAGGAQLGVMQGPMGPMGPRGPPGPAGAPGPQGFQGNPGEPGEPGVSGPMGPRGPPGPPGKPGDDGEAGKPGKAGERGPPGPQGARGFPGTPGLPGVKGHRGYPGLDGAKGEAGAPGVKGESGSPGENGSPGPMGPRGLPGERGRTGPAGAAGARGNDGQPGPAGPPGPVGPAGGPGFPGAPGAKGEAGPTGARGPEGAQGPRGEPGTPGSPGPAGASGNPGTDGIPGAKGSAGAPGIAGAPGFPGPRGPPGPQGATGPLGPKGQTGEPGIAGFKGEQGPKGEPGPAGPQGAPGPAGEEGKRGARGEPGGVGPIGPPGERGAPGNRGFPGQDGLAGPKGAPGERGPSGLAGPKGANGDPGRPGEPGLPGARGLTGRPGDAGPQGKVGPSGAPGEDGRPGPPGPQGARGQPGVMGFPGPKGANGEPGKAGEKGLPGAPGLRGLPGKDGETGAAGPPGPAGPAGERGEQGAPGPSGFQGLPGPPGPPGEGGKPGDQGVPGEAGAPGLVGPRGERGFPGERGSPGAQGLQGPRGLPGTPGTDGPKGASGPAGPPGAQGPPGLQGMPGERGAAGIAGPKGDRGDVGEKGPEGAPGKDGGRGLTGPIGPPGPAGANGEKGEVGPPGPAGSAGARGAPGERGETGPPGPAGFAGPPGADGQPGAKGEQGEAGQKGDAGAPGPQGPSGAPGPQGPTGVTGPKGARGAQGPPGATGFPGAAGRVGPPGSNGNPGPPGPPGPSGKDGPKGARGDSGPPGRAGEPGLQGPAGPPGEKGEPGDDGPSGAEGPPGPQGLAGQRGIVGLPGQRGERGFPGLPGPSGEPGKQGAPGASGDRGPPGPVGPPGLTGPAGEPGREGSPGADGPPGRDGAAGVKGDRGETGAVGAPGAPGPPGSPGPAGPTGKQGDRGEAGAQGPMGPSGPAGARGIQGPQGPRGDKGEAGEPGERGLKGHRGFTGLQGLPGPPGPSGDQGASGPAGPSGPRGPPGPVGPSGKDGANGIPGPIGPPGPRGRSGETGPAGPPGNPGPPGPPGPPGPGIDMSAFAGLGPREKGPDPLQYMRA

In assay [1], “coch_vWFA2_F527C protein, dimeric form (covalent disulfide-bonded dimer) (domain or fragment)” came in with a Kd of the higher-affinity species (heterogeneous analyte, two species 1:1) of 950 nM. With “coch_vWFA2_F527C protein, monomeric form (recombinant vWFA2 domain of human cochlin carrying the p.F527C mutation) (domain or fragment)”, in assay [2], the stoichiometry N (commonly a count of units in the complex or per binding partner) is 2. Regarding cochlin vWFA2 (from UniProt O43405), the Kd (as a rule, a measure of binding affinity in units of concentration) with type II collagen was 94.5 nM.
